# Test results: the supplement of paper PMC11780869
# Test system: Bacillus subtilis
# Assay: cleaved RNA product abundance (RNA/gDNA barcode ratio) relative to median wild-type variant (ratio to wild type); higher = more accumulation of the downstream cleavage product
# In short: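 Cleaved product abundance is expressed as the RNA:gDNA barcode ratio per construct, scaled to the median construct carrying the unmutated site. The constructs were barcoded, mutagenized RNase Y cleavage-site windows in truncated aprE or tetM reporter mRNAs integrated into the B. subtilis chromosome. Cultures grew in LB at 37°C from OD600 0.0003 to 0.3 before cleaved RNA was gel-selected and barcode-sequenced.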
# [1] = experiment (reporter, strain, medium): exp 8a: truncated aprE reporter, strain BJT201 with 2% xylose (RNase J1 expressed), cleavage site: glnRA (positions -5 to +31 mutated)
# [2] = experiment (reporter, strain, medium): exp 4a: truncated aprE reporter, strain BJT201 with 2% xylose (RNase J1 expressed), cleavage site: cggR-gapA (positions -7 to +36 mutated)
# [3] = experiment (reporter, strain, medium): exp 2b: truncated aprE reporter, strain BJT200, cleavage site: cggR-gapA (positions -7 to +36 mutated)
# [4] = experiment (reporter, strain, medium): exp 6: tetM reporter, strain 168, cleavage site: cggR-gapA (positions -7 to +36 mutated)
Sequence,cleaved RNA product abundance [2],further results
CGACATGTCCCGCTTCTTTCATTAATCCGTTAGCAACTCATTTGCTATATACATTTACCTTTTAAGAGGAGGAAT,–,cleaved RNA product abundance [1]: 1.46
ACAGACGAAGGAGCCGCAAAGAAGTTATTAGGTGATGAATAATCCCTCAATATAAATATCTCTCACTTATTTAAA,0.331,–
CGACATGTCCCGCTTCTTTCATTAATCCGTTAGCCACTGTTTTGCTATAAACATTTACCTTTTAAGAGGAGGAAT,–,cleaved RNA product abundance [1]: 0.219
ACAGACGAAGGAGCCGCAAAGAAGTTATTAAGGGTTGAATAATCCTTCAATATAAATATCTCTCACTTATTTAAA,0.358,–
CGACATGTCCCGCTTCTTTCATTAATCCGTTAGCAACTGTTTTGCGATATACATTTACCATTTAAGAGGAGGAAT,–,cleaved RNA product abundance [1]: 0.637
ACAGACGAAGGAGCCGCAAAGAAGTTATTAAGGGATGAACAATCACTCAATATAAATATCTCTCACTTATTTAAA,0.105,–
ACAGACGAAGGAGCCGCAAAGAAGTTATTAAGGGATAAATAATCCCTCAATATAGATATCTCTCACTTATTTAAA,1.02,cleaved RNA product abundance [3]: 0.638
CGACATGTCCCGCTTCTTTCATTAAGCCGTTATCAACTGTTTTGCTATATTCATTTACCTTTTAAGAGGAGGAAT,–,cleaved RNA product abundance [1]: 0.0648
ACAGACGAAGGAGCCGCAAAGAAGTTATTAAGGGATGAATAATCCCTAATTATAAATATCTCTCACTTATTTAAA,0.447,cleaved RNA product abundance [3]: 0.365
ACAGACGAAGGAGCCGCAAAAAACTTATTAAGGGATGATTAATCCCTCAATATAAATATCTCTCACTTATTTAAA,–,cleaved RNA product abundance [3]: 0.325
CGACATGTCCCGCTTCTTTCATTAATCCGTTAGCAACGGTTTTACTATATACATTTACCTTTTAAGAGGAGGAAT,–,cleaved RNA product abundance [1]: 0.495
ACAGACGAAGGAGCCGCAAAGAAGCTAATAAGGGATGAATAATCCCTCAATATAAATATCTCTCACTTATTTAAA,0.286,cleaved RNA product abundance [3]: 0.247
ACAGACGAAGGAGCCGCAAAAAAGTTATTAAGGGATGAATAATCCCTCTATATAAATATCTCTCACTTATTTAAA,0.613,–
ACAGACGAAGGAGCCGCAAAGAAGTTTTTAAGGTATGAATAATCCCTCAATATAAATATCTCTCACTTATTTAAA,0.098,–
ACAGACGAAGGAGCCGCAAAGAAGTTATTAAGTGATGAACAATCCCTCAATATAAATATCTCTCACTTATTTAAA,0.109,–
CGACATGTCCCGCTTCTTTCATTAATCCGATAGCAACTGTTTTCCTATATAAGCTTACCTTTTAAGAGGAGGAAT,–,cleaved RNA product abundance [1]: 0.295
CGACATGTCCCGCTTCTTTCATTAATCCGTTAGCAACTGTTTTGCCATATACGTTTACCTTTTAAGAGGAGGAAT,–,cleaved RNA product abundance [1]: 0.0858
ACAGACGAAGGAGCCGCAAACAAGTTATTAAGGGATGAATAATGCCTCAATATAAATATCTCTCACTTATTTAAA,0.0993,–
ACAGACGAAGGAGCCGCATAGAAGTTATTAATGGATGAATAATCCCTCAATATAAATATCTCTCACTTATTTAAA,0.214,cleaved RNA product abundance [3]: 0.142
ACAGACGAAGGAGCCGCAAAGAAATTATTAAGGGATGAATAATCACTCAATATAAATATCTCTCACTTATTTAAA,0.122,cleaved RNA product abundance [3]: 0.136
ACAGACGAAGGAGCCGCAAAGAAGTTATTACGGGAAGAATAATCCCTCAATATAAATATCTCTCACTTATTTAAA,0.322,cleaved RNA product abundance [3]: 0.152

Sequence,cleaved RNA product abundance [2],further results
ACAGACGAAGGAGCCGCAAAGAAGTTATTAAGGGATGAATAATCCCTCAACATAAATATCTCTCACTTATTTAAA,0.345,cleaved RNA product abundance [3]: 0.22; cleaved RNA product abundance [4]: 0.137
ACAGACGAAGGAGCCGCAAAGAAGTTATTAAGGGAAGAAAAATCCCTCAATATAAATATCTCTCACTTATTTAAA,0.436,cleaved RNA product abundance [3]: 0.684
ACAGACGAAGGAGCCGCAAAGAAGTTATTAAGGGATGCATAATCCCTAAATATAAATATCTCTCACTTATTTAAA,0.76,–
ACAGACGAAGGAGCCGCAAAGAAGTTATGAAGGGATGAATAATCCCACAATATAAATATCTCTCACTTATTTAAA,–,cleaved RNA product abundance [3]: 0.138
ACAGACGAAGGAGCCGCGAAGAAGTTATTAAGGGATGAATACTCCCTCAATATAAATATCTCTCACTTATTTAAA,0.528,–
CGACATGTCCCGCTTCTTTCATTAATGCGTTAGCAACTGTTTTGCTATATACATTTACATTTTAAGAGGAGGAAT,–,cleaved RNA product abundance [1]: 0.652
ACAGACGAAGGAGCCGCAAAAAAGTTCTTAAGGGATGAATAATCCCTCAATATAAATATCTCTCACTTATTTAAA,0.218,–
ACAGACGAAGGAGCCGCAAAGAAGTTATTAAGGGATGAATAATCCCTCAATATAAATTTCTCTCACTTATTTAAA,0.761,cleaved RNA product abundance [3]: 0.72; cleaved RNA product abundance [4]: 0.391
ACAGACGAAGGAGCCGCAAAAAAGTTATTAAGGCATGAATAATCCCTCAATATAAATATCTCTCACTTATTTAAA,0.126,cleaved RNA product abundance [3]: 0.104
CGACATGTCCCGCTTCTTTCATTAATCCGTTAGCAATTGTTTTGCTATATACATGTACCTTTTAAGAGGAGGAAT,–,cleaved RNA product abundance [1]: 0.526
ACAGACGAAGGAGCCGCAAAGAAGTTATTAAGGGATGAATACTCTCTCAATATAAATATCTCTCACTTATTTAAA,0.226,–
CGACATGTCCCGCTTCTTTCATTAATCCGTTAGCAACTGTTTTGCTATATACATTAATCTTTTAAGAGGAGGAAT,–,cleaved RNA product abundance [1]: 1.54
ACAGACGAAGGAGCCGCAAAGAGGTTATTAAGGTATGAATAATCCCTCAATATAAATATCTCTCACTTATTTAAA,0.1,–
ACAGACGAAGGAGCCGCAAAGAAGTTACTAAGGGATGATTAATCCCTCAATATAAATATCTCTCACTTATTTAAA,–,cleaved RNA product abundance [3]: 0.155
ACAGACGAAGGAGCCGCAAATAAGTTATTAAGGGATGAATAATCCGTCAATATAAATATCTCTCACTTATTTAAA,0.299,–
ACAGACGAAGGAGCCGCAAAGAAGTTATTAAGAGAAGAATAAACCCTCAATATAAATATCTCTCACTTATTTAAA,0.0499,–
ACAGACGAAGGAGCCGCAAAGAAGTTATTAAGGGATGAATAATCCCTGAATATAAATAGCTCTCACTTATTTAAA,0.256,–
ACAGACGAAGGAGCCGCAAAGAAGTTATTAAGGGATGAATAATACCTCAATATAAAAATCTCTCACTTATTTAAA,0.179,cleaved RNA product abundance [3]: 0.144
CGACATGTCCCGCTTCTTTCATTAATCCGTTAGCAACTGTTTTGCTAAATACATTTTCCTTTTAAGAGGAGGAAT,–,cleaved RNA product abundance [1]: 0.232
CGACATGTCCCGCTTCTTTCATTAATCCGTTAACAACTGTTTTGCAATATACATTTACCTTTTAAGAGGAGGAAT,–,cleaved RNA product abundance [1]: 0.185
ACAGACGAAGGAGCCGCAAAGAAGTTATTAAGGGATGACTAATCCTTCAATATAAATATCTCTCACTTATTTAAA,0.251,–

Sequence,cleaved RNA product abundance [2],further results
ACAGACGAAGGAGCCGCAAAAAAGTTATTAAGGGATGAATAATCCCTCAATACAAATATCTCTCACTTATTTAAA,0.0755,–
ACAGACGAAGGAGCCGCAAAGAAGTTATTAAAGGATGAATAATCCATCAATATAAATATCTCTCACTTATTTAAA,0.178,cleaved RNA product abundance [3]: 0.141
CGACATGTCCCGCTTCTTTCATTAATCCCTTAACAACTGTATTGCTATATACATTTACCTTTTAAGAGGAGGAAT,–,cleaved RNA product abundance [1]: 0.142
ACAGACGAAGGAGCCGCAAAGAAGTTATAAAGGGATGAATAATCTCTCAATATAAATATCTCTCACTTATTTAAA,0.338,–
ACAGACGAAGGAGCCGCAAAGAAGTTATTAAGGGATTAATAATCCCCCAATATAAATATCTCTCACTTATTTAAA,0.272,–
CGACATGTCCCGCTTCTTTCATTAATCCGTTAGCAACTGTTATGCCATATACATTTACCTTTTAAGAGGAGGAAT,–,cleaved RNA product abundance [1]: 0.232
CGACATGTCCCGCTTCTTTCATTAATCCGTTAGCAACCGTTTTGCAATATACATTTACCTTTTAAGAGGAGGAAT,–,cleaved RNA product abundance [1]: 0.344
ACAGACGAAGGAGCCGCAAAGAAGTTATTAAGGGATGAATAATCGCACAATATAAATATCTCTCACTTATTTAAA,0.0643,–
ACAGACGAAGGAGCCGCAAAGAAGTTATTAAGGGATAAATAATCCATCAATATAAATATCTCTCACTTATTTAAA,0.195,–
CGACATGTCCCGCTTCTTTCATTAATACGTTAGCAACTGTTTTGCTATATAAATTTACCTTTTAAGAGGAGGAAT,–,cleaved RNA product abundance [1]: 1.02
ACAGACGAAGGAGCCGCAAAGAAGTTATTAAAGGATGAATAATCCCGCAATATAAATATCTCTCACTTATTTAAA,0.219,–
ACAGACGAAGGAGCCGCAAAGAAGTTATTTAGGGAAGAATAATCCCTCAATATAAATATCTCTCACTTATTTAAA,0.572,–
ACAGACGAAGGAGCCGCAAAGAAGTTATTACGCGATGAATAATCCCTCAATATAAATATCTCTCACTTATTTAAA,0.0746,–
ACAGACGAAGGAGCCGCAAAGAAGTTATTAAGGGATGAAAAATCCCTCAATATAGATATCTCTCACTTATTTAAA,–,cleaved RNA product abundance [3]: 0.277
CGACATGTCCCGCTTCTTTCATTAATCCGTCAGCAACTGTTTTGTTATATACATTTACCTTTTAAGAGGAGGAAT,–,cleaved RNA product abundance [1]: 0.485
ACAGACGAAGGAGCCGCAAAGAAGTTATTAAGGGATGAATAACCTCTCAATATAAATATCTCTCACTTATTTAAA,0.151,–
CGACATGTCCCGCTTCTTTCATTATTCCGTTAGCAACTGTTTTGTTATATACATTTACCTTTTAAGAGGAGGAAT,–,cleaved RNA product abundance [1]: 0.541
ACAGACGAAGGAGCCGCAAAGAAGTTATTAAGGGATGAATCATCCCTCAATTTAAATATCTCTCACTTATTTAAA,–,cleaved RNA product abundance [3]: 0.169
ACAGACGAAGGAGCCGCAACGAAGTTATTAAGGGATGAATAATCCCTCAATATAAATCTCTCTCACTTATTTAAA,0.538,–
